The target of assay [1] is T1, N-terminal biotinylated and lysine-acetylated Tat peptide (Tat AcK50) (HIV-1).
T1 construct: also called biotinylated and wild type Tat peptide; Tat peptide containing AcK50
Put plainly: pull-down with the biotinylated Tat-K50ac peptide on streptavidin agarose, anti-GST Western blot. In general terms: A western blot detects proteins with antibodies after separation by electrophoresis.

Assay [2] concerns the target T1, N-terminal biotinylated and …. Put plainly: pull-down with the N-terminal biotinylated, lysine-acetylated Tat peptide on streptavidin agarose, anti-GST western blot.
In assay [3] the target is p300/CBP-associated factor (P/CAF), HA-tagged (human, UniProt Q92831 1-832). Description: co-immunoprecipitation from cells with anti-FLAG (FLAG-Tat), western blot with anti-HA (HA-P/CAF).
Assay [4] has as its target T2, Tat AcK50 peptide SYGR-AcK-KRRQRC (SEQ ID NO:50) (HIV-1).
T2 construct: Synthetic peptide
Description: NMR 2D 1H-15N HSQC.

Numbering of substitutions follows the chain as printed. Numbers in names are those of the source.

In general, Kd refers to a measure of binding affinity in units of concentration.

B1: TIF16 (624-812) (other)
chain: SATICRVCQKPGDLVMCNQCEFCFHLDCHLPALQDVPGEEWSCSLCHVLPDLKEEDGSLSLDGADSTGVVAKLSPANQRKCERVLLALFCHEPCRPLHQLATDSTFSLDQPGGTLDLTLIRARLQEKLSPPYSSPQEFAQDVGRMFKQFNKLTEDKADVQSIIGLQRFFETRMNEAFGDTKFSAVLVEP
notes: also called GST-fusion TIF1b bromodomain-containing construct, residues 624-812 (lane 6); the sheet prints 'TIF16'; not shown: GST tag and linker of the pGEX4T-3 vector
For B1, the binding result in assay [1] is listed as “no binding”.

B2: GST-fusion bromodomain from TIF1 (other)
chain: KLSPANQRKCERVLLALFCHEPCRPLHQLATDSTFSLDQPGGTLDLTLIRARLQEKLSPPYSSPQEFAQDVGRMFKQFNKLTEDKADVQSIIGLQRFFETRMNEAFGDTKFSAVLVEP
notes: domain: bromodomain; also called bromodomain of TIF1; TIF1b
For the molecule B2, the binding result in assay [2] is “no binding”.

B3: CBP (1082-1317) (other)
chain: KKIFKPEELRQALMPTLEALYRQDPESLPFRQPVDPQLLGIPDYFDIVKNPMDLSTIKRKLDTGQYQEPWQYVDDVWLMFNNAWLYNRKTSRVYKFCSKLAEVFEQEIDPVMQSLGYCCGRKYEFSPQTLCCYGKQLCTIPRDAAYYSYQNRYHFCEKCFTEIQGENVTLGDDPSQPQTTISKDQFEKKKNDTLDPEPFVDCKECGRKMHQICVLHYDIIWPSGFVCDNCLKKTGR
notes: also called GST-fusion CBP bromodomain-containing construct, residues 1082-1317 (lane 4); not shown: GST tag and linker of the pGEX4T-3 vector
For B3, the binding result in assay [1] is reported as “no binding”.

B4: HIV-1 Tat protein, wild type (other)
chain: MEPVDPRLEPWKHPGSQPKTASNNCYCKRCCLHCQVCFTKKGLGISYGRKKRRQRRRAPQDSKTHQVSLSKQPASQPRGDPTGPKESKKKVERETETDPED
notes: also called Tat-KK; wild type Tat
For the molecule B4, the binding result in assay [3] is “binds”.

B5: HIV-1 Tat double mutant K50R/K51R (other)
chain: B4 chain with K50R, K51R
notes: also called Tat-RR; Tat K50R/K51R mutant protein
In the case of B5, the binding result in assay [3] is “no binding”.

B6: bromodomain of P/CAF (residues 719-832 of SEQ ID NO:2) (other)
chain: SKEPRDPDQLYSTLKSILQQVKSHQSAWPFMEPVKRTEAPGYYEVIRFPMDLKTMSERLKNRYYVSKKLFMADLQRVFTNCKEYNAAESEYYKCANILEKFFFSKIKEAGLIDK
notes: also called P/CAF bromodomain; PCAF bromodomain
With B6, in assay [4], the Kd was around 20 µM.

B7: TIF16 (702-812) (other)
chain: RKCERVLLALFCHEPCRPLHQLATDSTFSLDQPGGTLDLTLIRARLQEKLSPPYSSPQEFAQDVGRMFKQFNKLTEDKADVQSIIGLQRFFETRMNEAFGDTKFSAVLVEP
notes: also called GST-fusion TIF1b bromodomain construct, residues 702-812 (lane 5); not shown: GST tag and linker of the pGEX4T-3 vector
Consider B7, for which the binding result in assay [1] is “no binding”.
